B1: eSrtA(2A-9) (protein)
chain: QAKPQIPKDKSKVAGYIEIPDADIKEPVYPGPATREQLNRGVCFHDENESLDDQNISIAGHTFIDRPNYQFTNLKAAKPGSMVYFKVGNETRIYKMTSIRKVHPNAVEVLDEQEGKDKQLTLVTCDDYNEETGVWESRKIFVATEVK
B2: 2A.6B (protein)
chain: QAKPQIPKDKSKVAGYIEIPDADIKEPVYPGPATREQLNKGVSFHEENESLDDQNISIAGHTFIDRPNYQFTNLKAAKVGSMVYFKVGNETRKYKMTSIRKVRPTAVEVLDEQKGKDKQLTLVTCDDYNEETGVWETRKIFVATEVK
B3: 2A.6C (protein)
chain: QAKPQIPKDKSKVAGYIEIPDADIKEPVYPGPATREQLNRGVSFHEENESLDDQNISIAGHTFIDRPNYQFTNLKAAKPGSMVYFKVGNETRIYKMTSIRKVRPTAVEVLDEQKGKDKQLTLVTCDDYNEETGVWETRKIFVATEVK
B4: eSrtA(2A-6) (protein)
chain: QAKPQIPKDKSKVAGYIEIPDADIKEPVYPGPATREQLNRGVSFHEENESLDDQNISIAGHTFIDRPNYQFTNLKAAKVGSMVYFKVGNETRKYKMTSIRNVRPTAVEVLDEQKGKDKQLTLVTCDDYNEETGVWETRKIFVATEVK

How the values were obtained:
[1] = target: T1, Alexa Fluor 647-LPESGG
T1 chain: KLPESGG

[2] = target: T2, Abz-LPETGK(Dnp)-CONH2
T2 chain: LPETGK

[3] = target: T3, Gly-Gly-Gly-COOH
T3 chain: GGG

[4] = target: T4, Alexa Fluor 488-LAETGG
T4 chain: KLAETGG

[5] = target: T5, Abz-LSETGK(Dnp)-CONH2
T5 chain: LSETGK

[6] = target: T6, Abz-LRETGK(Dnp)-CONH2
T6 chain: LRETGK

[7] = target: T7, Abz-LPESGK(Dnp)-CONH2
T7 chain: LPESGK

[8] = target: T8, Abz-LAETGK(Dnp)-CONH2
T8 chain: LAETGK

Row | Protein | Avg KM [2] | Avg kcat/KM [2] | Avg KM (uM) for GGG; with LAETG (2A) peptide [3] | Avg kcat/KM for GGG; with LAETG (2A) peptide [3] | Avg KM [8] | Avg kcat/KM [8] | Specificity (relative catalytic efficiency, fold), LAETG over LPETG [8] | Km, GGG (uM); with LAETG peptide [3] | Km, LxExG [8] | kcat/Km (Hz/M) [8] | Km, LxExG [2] | kcat/Km (Hz/M) [2] | specificity (relative cat. Efficiency, fold), LAETG over LPETG [8] | other results
1 | B1 | 1270 µM | 16.5 | 1480 µM | 1070 | 265 µM | 8420 | 510 fold | – | – | – | – | – | – | conjugation of fluorophore-peptide to GGG-diblock (gel fluorescence), non-cognate pair [1]: no detectable off-target substrate conjugation; modification of GGG-PEG-functionalized 96-well plates (fluorescence), non-cognate pair: no significant modification [1]: Each enzyme exhibited significant modification only on its cognate substrate; Km [2]: 1270 µM; Rel. Activity (fold below the enzyme's best substrate, LAETG) [2]: 510 fold; kcat/Km [2]: 16.5 M⁻¹ s⁻¹; Km,GGG (µM); listed substrate LAETG [3]: 1480 µM; Km,GGG (µM); listed substrate LPETG [3]: 585 µM; Km,GGG (µM); listed substrate LRETG [3]: 628 µM; Km,GGG (µM); listed substrate LSETG [3]: 1270 µM; conjugation of fluorophore-peptide to GGG-diblock (gel fluorescence), cognate pair [4]: Significant peptide-diblock conjugation was observed only for cognate pairs of enzyme and substrate, with no detectable off-target substrate conjugation; modification of GGG-PEG-functionalized 96-well plates (fluorescence), cognate pair [4]: Each enzyme exhibited significant modification only on its cognate substrate; Km [5]: 331 µM; kcat/Km [5]: 355 M⁻¹ s⁻¹; Km [6]: 1070 µM; kcat/Km [6]: 233 M⁻¹ s⁻¹; Km [7]: 4800 µM; Rel. Activity (fold below the enzyme's best substrate, LAETG) [7]: 5940 fold; kcat/Km [7]: 1.42 M⁻¹ s⁻¹; Km [8]: 265 µM; kcat/Km [8]: 8420 M⁻¹ s⁻¹
2 | B2 | – | – | – | – | – | – | – | 642 µM | 310 µM | 2270 Hz/M | – | – | – | –
3 | B3 | – | – | – | – | – | – | – | 642 µM | 343 µM | 2380 Hz/M | 1980 µM | 38.7 Hz/M | 61.6 fold | increased affinity for the LAETG substrate as compared to the LPETG substrate [8]: from ˜61 (2A.6c) to ˜116fold (2Ar5)
4 | B4 | 3400 µM | 47.7 | 1110 µM | 1610 | 665 µM | 3930 | 82.4 fold | 1040 µM | 608 µM | 4130 Hz/M | 3290 µM | 47.8 Hz/M | 86.4 fold | –

Reference: patent publication US20160208233A1 (Harvard, published 2016)
